Source: article PMC9990120 (Journal of Proteome Research, 2023)

Target: BirA*-FLAG tagged GSK-3β (UniProt P49841 1-420)
Experiment: proximity labelling

Sequence of BirA*-FLAG tagged GSK-3β (P49841 whole entry): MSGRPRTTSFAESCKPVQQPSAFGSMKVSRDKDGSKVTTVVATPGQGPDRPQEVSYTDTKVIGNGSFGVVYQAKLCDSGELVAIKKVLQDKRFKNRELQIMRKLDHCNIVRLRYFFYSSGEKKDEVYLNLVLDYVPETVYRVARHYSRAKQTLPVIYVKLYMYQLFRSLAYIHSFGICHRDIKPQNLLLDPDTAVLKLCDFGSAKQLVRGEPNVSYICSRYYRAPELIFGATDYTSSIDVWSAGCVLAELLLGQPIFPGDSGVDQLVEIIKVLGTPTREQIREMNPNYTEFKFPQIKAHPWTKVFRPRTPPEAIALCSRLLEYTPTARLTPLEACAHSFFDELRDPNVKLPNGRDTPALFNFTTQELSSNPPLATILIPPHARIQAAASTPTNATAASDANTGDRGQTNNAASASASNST

B1: MISP (natural protein)
chain: MDRVTRYPILGIPQAHRGTGLVLDGDTSYTYHLVCMGPEASGWGQDEPQTWPTDHRAQQGVQRQGVSYSVHAYTGQPSPRGLHSENREDEGWQVYRLGARDAHQGRPTWALRPEDGEDKEMKTYRLDAGDADPRRLCDLERERWAVIQGQAVRKSSTVATLQGTPDHGDPRTPGPPRSTPLEENVVDREQIDFLAARQQFLSLEQANKGAPHSSPARGTPAGTTPGASQAPKAFNKPHLANGHVVPIKPQVKGVVREENKVRAVPTWASVQVVDDPGSLASVESPGTPKETPIEREIRLAQEREADLREQRGLRQATDHQELVEIPTRPLLTKLSLITAPRRERGRPSLYVQRDIVQETQREEDHRREGLHVGRASTPDWVSEGPQPGLRRALSSDSILSPAPDARAADPAPEVRKVNRIPPDAYQPYLSPGTPQLEFSAFGAFGKPSSLSTAEAKAATSPKATMSPRHLSESSGKPLSTKQEASKPPRGCPQANRGVVRWEYFRLRPLRFRAPDEPQQAQVPHVWGWEVAGAPALRLQKSQSSDLLERERESVLRREQEVAEERRNALFPEVFSPTPDENSDQNSRSSSQASGITGSYSVSESPFFSPIHLHSNVAWTVEDPVDSAPPGQRKKEQWYAGINPSDGINSEVLEAIRVTRHKNAMAERWESRIYASEEDD
B1 was tested, and the “fold signal intensity against the GSK-3α bait (normalised to bait level)” value was about 4 fold.
